Laboratory results from doi:10.1101/2025.10.27.684836 (bioRxiv, 2025).
Blank lines part the entries; values can stand above or below the molecule they belong to.

Experiments:
[1] = target: His-MBP-SALL4(QID-ZFC4) fusion protein (mouse); assay: SEC-MALS
SEC-MALS = target: the molecule itself; assay: SEC-MALS
SALL4 QID-ZFC4 = target: T1, SALL4 QID-ZFC4 (UniProt Q8BX22 201-240+870-940, internal_change); assay: SPR
T1 sequence: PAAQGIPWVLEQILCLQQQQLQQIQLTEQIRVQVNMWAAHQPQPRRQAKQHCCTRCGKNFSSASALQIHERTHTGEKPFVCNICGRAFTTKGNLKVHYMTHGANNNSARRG

stoichiometry N [1]: 4
Molecule: His-MBP-SALL4(QID-ZFC4) fusion protein (domain or fragment)

Molecule: GAEAPMAPMPAAQGIPWVLEQILCLQQQQLQQIQLTEQIRVQVNMW (domain or fragment, mouse, UniProt Q8BX22 192-237, looked up) [recombinant SALL4 QID (192-237) peptide]
stoichiometry N (SEC-MALS): 4

B1: SPR probe, single ATATTA motif (dsDNA)
DNA 1: AGCAGGCCTAATATCGCAC
DNA 2: GTGCGATATTAGGCCTGCT
binding result (SALL4 QID-ZFC4): binds
